Laboratory results reported in PMC4772974 (EMBO Reports, 2016).
One block for each molecule: values may come before it.

Legend:
BBS4 = BBS4 (UniProt Q96RK4); assay: GFP-Trap co-IP, immunoblot; conditions: reference: EGFP-PCM1-WT*; sites S372
Cep290 = Cep290 (UniProt O15078); assay: GFP-Trap co-IP, immunoblot; conditions: reference: EGFP-PCM1-WT*; sites S372
PCM1 = PCM1 (UniProt Q15154); assay: RFP-Trap co-IP, mCherry-PCM1 with EGFP-PCM1; conditions: reference: mCherry-PCM1-WT* with EGFP-PCM1-WT*; sites S372
His‐PCM1 (a.a. 1–1,128) = target: T1, His‐PCM1 (a.a. 1–1,128) (human, UniProt Q15154 1-1128); assay: pull-down; MBP-Plk4 on Dynabeads Protein G coupled with anti-MBP antibody; 8 μg His-PCM1(1128) in 600 μl binding buffer (50 mM Tris-HCl pH 7.5, 200 mM NaCl, 2 mM MgCl2, 0.5 mg/ml BSA, 0.05% NP-40), 4°C, 2 h; Coomassie and anti-His blot; conditions: both partners purified
T1 sequence (looked up): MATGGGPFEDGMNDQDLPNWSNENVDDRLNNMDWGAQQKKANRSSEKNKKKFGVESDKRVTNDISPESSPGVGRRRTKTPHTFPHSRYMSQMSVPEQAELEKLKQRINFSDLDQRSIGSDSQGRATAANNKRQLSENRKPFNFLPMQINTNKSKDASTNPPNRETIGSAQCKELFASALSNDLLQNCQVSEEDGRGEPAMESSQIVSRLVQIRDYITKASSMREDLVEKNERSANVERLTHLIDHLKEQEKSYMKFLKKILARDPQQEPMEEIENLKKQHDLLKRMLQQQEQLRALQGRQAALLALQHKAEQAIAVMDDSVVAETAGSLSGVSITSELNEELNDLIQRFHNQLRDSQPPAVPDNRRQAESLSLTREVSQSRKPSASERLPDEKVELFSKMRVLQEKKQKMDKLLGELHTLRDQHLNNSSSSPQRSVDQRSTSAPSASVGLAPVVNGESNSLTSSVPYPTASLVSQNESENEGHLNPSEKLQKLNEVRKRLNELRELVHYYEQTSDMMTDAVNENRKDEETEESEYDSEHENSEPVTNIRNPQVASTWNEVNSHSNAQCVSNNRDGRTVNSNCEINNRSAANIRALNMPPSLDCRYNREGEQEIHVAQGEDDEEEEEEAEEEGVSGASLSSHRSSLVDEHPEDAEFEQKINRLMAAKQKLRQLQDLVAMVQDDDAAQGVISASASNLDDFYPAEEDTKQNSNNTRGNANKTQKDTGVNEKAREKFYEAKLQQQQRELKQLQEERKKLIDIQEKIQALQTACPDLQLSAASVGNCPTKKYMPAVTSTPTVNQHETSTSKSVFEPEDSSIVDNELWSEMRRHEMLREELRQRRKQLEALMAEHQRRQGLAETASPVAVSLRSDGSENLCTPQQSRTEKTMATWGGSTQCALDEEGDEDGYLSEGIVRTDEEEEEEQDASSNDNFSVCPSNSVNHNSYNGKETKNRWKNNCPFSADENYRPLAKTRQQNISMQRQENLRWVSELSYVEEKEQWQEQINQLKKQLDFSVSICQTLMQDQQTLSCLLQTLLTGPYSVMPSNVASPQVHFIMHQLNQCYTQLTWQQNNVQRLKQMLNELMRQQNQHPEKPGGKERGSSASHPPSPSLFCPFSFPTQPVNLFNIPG

- binding against the reference (BBS4): weaker
- binding against the reference (Cep290): weaker
Molecule: PCM1 (from UniProt Q15154) EGFP-PCM1-S372A*

- binding against the reference (PCM1): weaker
Molecule: PCM1 (from UniProt Q15154) mCherry-PCM1-S372A* with EGFP-PCM1-WT*

- binding result (His‐PCM1 (a.a. 1–1,128)): binds
B1: MBP‐Plk4‐WT (enzyme, UniProt O00444 1-970, looked up)
chain: MATCIGEKIEDFKVGNLLGKGSFAGVYRAESIHTGLEVAIKMIDKKAMYKAGMVQRVQNEVKIHCQLKHPSILELYNYFEDSNYVYLVLEMCHNGEMNRYLKNRVKPFSENEARHFMHQIITGMLYLHSHGILHRDLTLSNLLLTRNMNIKIADFGLATQLKMPHEKHYTLCGTPNYISPEIATRSAHGLESDVWSLGCMFYTLLIGRPPFDTDTVKNTLNKVVLADYEMPSFLSIEAKDLIHQLLRRNPADRLSLSSVLDHPFMSRNSSTKSKDLGTVEDSIDSGHATISTAITASSSTSISGSLFDKRRLLIGQPLPNKMTVFPKNKSSTDFSSSGDGNSFYTQWGNQETSNSGRGRVIQDAEERPHSRYLRRAYSSDRSGTSNSQSQAKTYTMERCHSAEMLSVSKRSGGGENEERYSPTDNNANIFNFFKEKTSSSSGSFERPDNNQALSNHLCPGKTPFPFADPTPQTETVQQWFGNLQINAHLRKTTEYDSISPNRDFQGHPDLQKDTSKNAWTDTKVKKNSDASDNAHSVKQQNTMKYMTALHSKPEIIQQECVFGSDPLSEQSKTRGMEPPWGYQNRTLRSITSPLVAHRLKPIRQKTKKAVVSILDSEEVCVELVKEYASQEYVKEVLQISSDGNTITIYYPNGGRGFPLADRPPSPTDNISRYSFDNLPEKYWRKYQYASRFVQLVRSKSPKITYFTRYAKCILMENSPGADFEVWFYDGVKIHKTEDFIQVIEKTGKSYTLKSESEVNSLKEEIKMYMDHANEGHRICLALESIISEEERKTRSAPFFPIIIGRKPGSTSSPKALSPPPSVDSNYPTRERASFNRMVMHSAASPTQAPILNPSMVTNEGLGLTTTASGTDISSNSLKDCLPKSAQLLKSVFVKNVGWATQLTSGAVWVQFNDGSQLVVQAGVSSISYTSPNGQTTRYGENEKLPDYIKQKLQCLSSILLMFSNPTPNFH
